Measurements from patent US20230250186A1 (published 2023).

T1: rat CD38 extracellular protein (rat, UniProt Q64244 45-303)
T1 construct: extracellular domain; Purchased; also called CD38 protein molecules of rats
T1 sequence (looked up): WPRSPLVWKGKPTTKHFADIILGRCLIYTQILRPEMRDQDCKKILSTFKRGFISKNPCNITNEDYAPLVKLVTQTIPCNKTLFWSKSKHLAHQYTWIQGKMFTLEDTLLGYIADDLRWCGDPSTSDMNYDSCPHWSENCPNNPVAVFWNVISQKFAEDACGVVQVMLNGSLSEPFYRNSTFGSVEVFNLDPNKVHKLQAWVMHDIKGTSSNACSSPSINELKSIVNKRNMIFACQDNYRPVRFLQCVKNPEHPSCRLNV

T2: mouse CD38 extracellular protein (mouse, UniProt P56528 45-304)
T2 construct: extracellular domain; Purchased; also called CD38 protein molecules of mice
T2 sequence (looked up): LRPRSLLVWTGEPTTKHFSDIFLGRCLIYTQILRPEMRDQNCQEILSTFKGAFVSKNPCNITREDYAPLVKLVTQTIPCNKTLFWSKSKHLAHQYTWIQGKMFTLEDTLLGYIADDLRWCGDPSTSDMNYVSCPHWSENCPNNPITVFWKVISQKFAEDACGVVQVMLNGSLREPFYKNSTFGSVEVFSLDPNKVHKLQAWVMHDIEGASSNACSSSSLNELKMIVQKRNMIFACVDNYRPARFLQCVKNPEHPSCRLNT


What was measured:
[1] = target: T3, CD38 protein on the surface of Raji, Daudi, Ramos and RPMI8226 cells (human, UniProt P28907 1-300); test: flow cytometry on Raji cells
T3 construct: whole, on cells; also called CD38 on the surfaces of Raji cells, Daudi cells, Ramos cells and RPMI8226 cells; cell surface antigen
Method: (§1) The logarithmic growth phase cells were collected, adjusted to a cell density of 5×10⁶ cells/mL, and pre-cooled on ice. […] 100 μL of cells were taken, and an equal volume of the diluted antibody was added for reaction at 4° C. for 30 min in the dark. After the completion of reaction, the cells were washed twice. The cells were resuspended in 100 μL of the diluted PE Mouse Anti-Human IgG secondary antibodies (purchased from BD Pharmingen), and reacted at 4° C. in the dark for 30 min. After the completion of reaction, the cells were washed twice with a pre-cooled normal saline containing 2% FBS. The cells were resuspended in 400 μL of 1% paraformaldehyde. Flow cytometry (BD Calibur) was used to analyze the binding ability of antibodies to cell surface antigens.

[2] = target: T3, CD38 protein on the surface of Raji, …; test: flow cytometry on Ramos cells
Method: as §1

[3] = target: T3, CD38 protein on the surface of Raji, …; test: cell-based or functional assay
[4] = target: BSA (BOVOGEN) (UniProt P02769 25-607); test: ELISA on coated protein, anti-human IgG HRP
Sequence of BSA (BOVOGEN) (P02769 25-607 limits assumed): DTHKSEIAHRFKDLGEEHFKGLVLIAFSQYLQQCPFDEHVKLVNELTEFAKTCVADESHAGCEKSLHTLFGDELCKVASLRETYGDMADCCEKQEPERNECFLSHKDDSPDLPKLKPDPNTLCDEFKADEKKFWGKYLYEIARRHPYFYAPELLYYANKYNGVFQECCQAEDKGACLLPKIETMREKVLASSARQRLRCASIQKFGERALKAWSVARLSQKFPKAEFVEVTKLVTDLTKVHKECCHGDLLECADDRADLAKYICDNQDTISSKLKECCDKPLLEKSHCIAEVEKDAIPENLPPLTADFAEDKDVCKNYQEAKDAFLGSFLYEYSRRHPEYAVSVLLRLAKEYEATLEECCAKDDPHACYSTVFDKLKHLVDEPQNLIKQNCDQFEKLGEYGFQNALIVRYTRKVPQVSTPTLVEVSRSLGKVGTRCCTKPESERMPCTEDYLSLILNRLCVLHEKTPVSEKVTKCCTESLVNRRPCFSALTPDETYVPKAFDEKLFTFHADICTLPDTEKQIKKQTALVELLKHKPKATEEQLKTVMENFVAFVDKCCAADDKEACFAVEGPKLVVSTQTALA
Method: Various proteins, such as milk (Beijing Bomed Biotechnology Co., Ltd.), BSA (BOVOGEN), CD19 (Beijing Yiqiao Shenzhou Biotechnology Co., Ltd.), TROP2 (Beijing Yiqiao Shenzhou Biotechnology Co., Ltd.), CD47 (Beijing Magpel Biotech Technology Co., Ltd.), CD38 (Beijing Yiqiao Shenzhou Biotechnology Co., Ltd.), Gas6 (R&D) and AXL (ACRO Biosystems) were respectively used to coat ELISA strips at 1 mg/ml at 4° C. overnight. After washing with PBST, 10% fetal bovine serum was added and blocked at 37° C. for 1 hour. […] After washing with PBST, horseradish peroxidase-labeled goat anti-human IgG HRP secondary antibodies (purchased from ThermoFisher Scientific) was added and reacted at room temperature for 30 minutes. After washing the plate with PBST (5 times), the residual drops were removed as possible on the absorbent paper. 100 ml TMB (eBioscience) was added to each well and placed at room temperature (20±50) in the dark for 1-5 min. 100 ml of 2N H₂SO₄ stop solution was added to each well to quench the substrate reaction, and the OD value was read at 450 nm with a microplate reader to analyze the antibody-protein binding ability.

[5] = target: T4, cynomolgus monkey CD38 extracellular protein (cynomolgus monkey, UniProt Q5VAN0 44-301); test: ELISA on coated CD38 extracellular protein
T4 construct: extracellular domain; Purchased; also called CD38 protein molecules of cynomolgus monkeys; Cynomolgus CD38
T4 sequence (Q5VAN0 44-301): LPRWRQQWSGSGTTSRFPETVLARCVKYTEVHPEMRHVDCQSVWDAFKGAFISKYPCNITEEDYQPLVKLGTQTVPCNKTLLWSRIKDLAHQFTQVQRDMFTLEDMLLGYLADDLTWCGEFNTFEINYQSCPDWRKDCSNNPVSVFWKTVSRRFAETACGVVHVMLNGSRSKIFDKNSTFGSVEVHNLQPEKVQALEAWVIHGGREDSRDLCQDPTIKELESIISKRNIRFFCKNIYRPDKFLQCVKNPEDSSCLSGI
Method: (§2) The CD38 extracellular proteins (Beijing Yiqiao Shenzhou Biotechnology Co., Ltd.) of different species of human (Human), mouse (Mouse), rat (Rat), cynomolgus monkey (Cynomolgus) and the like were respectively used to coat ELISA strips at 1 mg/ml at 40 overnight. After washing with PBST, 10% fetal bovine serum was added and blocked at 370 for 1 hour. […] After washing with PBST, horseradish peroxidase-labeled goat anti-human IgG HRP secondary antibodies (purchased from Thermo Fisher Scientific) was added and reacted at room temperature for 30 minutes. The plate was washed with PBST (5 times), and the remaining drops were removed as possible on the absorbent paper. 100 ml of TMB (purchased from eBioscience) was added to each well, and placed at room temperature (20±5° C.) in the dark for 1-5 min. 100 ml of 2N H₂SO₄ stop solution was added to each well to quench the substrate reaction, and the OD value was read at 450 nm with a microplate, to analyze the binding ability of the antibody to CD38 protein of different species.

[6] = target: T1, rat CD38 extracellular protein; test: ELISA on coated CD38 extracellular protein
Method: as §2

[7] = target: T2, mouse CD38 extracellular protein; test: ELISA on coated CD38 extracellular protein
Method: as §2

[8] = target: T3, CD38 protein on the surface of Raji, …; test: flow cytometry on Daudi cells
Method: as §1

[9] = target: T5, antigen CD38 (UniProt P28907 43-300, limits assumed); test: BIACORE SPR, antibody captured by anti-human IgG-Fab, CD38 as mobile phase
T5 construct: Soluble antigen; also called CD38 antigen
Method: (§3) The antibody affinity was analyzed by BIACORE Biomacromolecule Interaction Apparatus (GE).

[10] = target: T6, CD38-His fusion protein (UniProt P28907 43-300, limits assumed); test: ELISA on coated CD38-His, anti-human IgG HRP
T6 construct: also called target antigen CD38-His; not shown: His tag

[11] = target: T5, antigen CD38; test: binding curve of FIG. 9; method not clearly stated
[12] = target: T5, antigen CD38; test: BIACORE SPR by the method of Example 4
Method: as §3

[13] = target: T3, CD38 protein on the surface of Raji, …; test: flow cytometry on RPMI8226 cells
Method: as §1

EC50 [1] [µg/mL]	EC50 [2] [µg/mL]	ADCC EC50, Daudi target cells with NK92MI-CD16a effector cells (LDH release) [3] [µg/mL]	ADCC EC50, RPMI8226 target cells with NK92MI-CD16a effector cells (LDH release) [3] [µg/mL]	ADCC EC50, Raji target cells with NK92MI-CD16a effector cells (LDH release) [3] [µg/mL]	ADCC EC50, Ramos target cells with NK92MI-CD16a effector cells (LDH release) [3] [µg/mL]	EC50 [8] [µg/mL]	EC50 [10] [µg/mL]	EC50 [11] [µg/mL]	Binder	further results
0.0344	0.0815	0.00072	0.00146	0.00697	0.00069	0.0367	0.0351	–	humanized antibody SG003 (antibody, V domains shown, Full antibody expressed in CHO-S cells from vector pCMV-163 with a human IgG constant region; also called SG003 antibody) VH: QVQLLESGGGLVQPGGSLKLSCVASGFDFSLYWMNWVRQAPGKGLEWIGKINPDSSTINYTPSLKDKFFISRDNAKNTLYLQMTKVRSEDTALYYCARLWIATGGFDYWGQGTTLTVSS VL: EIVMTQSPASLSASLGQRATISCRASSSVSSSAFSYVHWYQQKSGQPPKLLIYLASNLESGVPARFSGSGSGTDFTLTIHPVESEDVATYYCHHSRELPFTFGSGTKLEIKR	binding result [4]: no binding; binding result [5]: binds; binding result [6]: no binding; binding result [7]: no binding; Kd [9]: 0.321 nM
–	–	–	–	–	–	–	–	0.0157	SG003M1 antibody (antibody, human IgG1, kappa, V domains shown, also called randomly mutated antibody SG003M1-3) VH: QVQLLESGGGLVQPGGSLKLSCVASGYNFSLYYMNWVRQAPGKGLEWIGKIQPESSTIQYTPSLKDKFFISRDNAKNTLYLQMTKVRSEDTALYYCARLWIGSGGFDYWGQGTTLTVSS VL: EIVMTQSPASLSASLGQRASISCRASNSVSSSAYSYVHWYQQKSGQPPKLLIYLASNIQSGVPARFSGSGSGTDFTLTIHPVESEDVATYYCHHSRQLPSTFGSGTKLEIKR	Kd [12]: 0.239 nM; koff [12]: 0.000636 s⁻¹; kon [12]: 2.66e+06 M⁻¹ s⁻¹
–	–	–	–	–	–	–	–	0.0278	SG003M2 antibody (antibody, human IgG1, kappa, V domains shown, also called randomly mutated antibody SG003M1-3) VH: QVQLLESGGGLVQPGGSLKLSCVASGFDFSLYWMNWVRQAPGKGLEWIGKISPNSSTINYSPSLKDKFFISRDNAKNTLYLQMTKVRSEDTALYYCARLYIASGGFDYWGQGTTLTVSS VL: EIVMTQSPASLSASLGQRATISCRASSSVSSSAYSYVHWYQQKSGQPPKLLIYLASDLQSGVPARFSGSGSGTDFTLTIHPVESEDVATYYCHHSRELPYSFGSGTKLEIKR	–
–	–	–	–	–	–	–	–	0.0061	SG003M3 antibody (antibody, human IgG1, kappa, V domains shown, also called randomly mutated antibody SG003M1-3) VH: QVQLLESGGGLVQPGGSLKLSCVASGFDFSLYWMNWVRQAPGKGLEWIGKISPDSSSLNYTPSVKDKFFISRDNAKNTLYLQMTKVRSEDTALYYCARLWIATGGYNYWGQGTTLTVSS VL: EIVMTQSPASLSASLGQRATISCRASNSVSTSAFSYVHWYQQKSGQPPKLLIYLASNLESGVPARFSGSGSGTDFTLTIHPVESEDVATYYCHHSREVPFTFGSGTKLEIKR	–
0.0493	0.0951	0.0046	0.00494	0.017	0.00301	0.0509	0.151	–	Daratumumab (DARZALEX) (antibody, V domains shown) VH: EVQLLESGGGLVQPGGSLRLSCAVSGFTFNSFAMSWVRQAPGKGLEWVSAISGSGGGTYYADSVKGRFTISRDNSKNTLYLQMNSLRAEDTAVYFCAKDKILWFGEPVFDYWGQGTLVTVSS VL: not shown	EC50 [13]: 0.176 µg/mL
